Measured values: publication PMC10425845 (The EMBO Journal, 2023)
Read-outs that look alike come from different tables or passages of the source.

B6: Strep-REC114 (full-length mouse REC114 with a single N-terminal Strep-tag) (natural protein, UniProt Q9CWH4 1-259, looked up)
chain: MSEAGNVASGLGLPGEVSQWSLKRYGRFMLLDNVGSPGPSSEAAAAGSPTWKVFESSEESGSLVLTIVVSGHFFISQGQTLLEGFSLIGSKNWLKIVRRMDCLLFGTTIKNKSRMFRVQFSGESKEEALERCCGCVQTLAQYVTVQEPDSTTQELQQSQGPREAGESQGKDPLQQGPSLTLEQHVCMAAGAGVLQERTSVTHRAQSILAPEKLTLAYEGSSWGTEELGPFLRLCLMDQNFPAFVEEVEKELKKITGLRN

Assays:
[1] = molecular target: REC114 226-254-MEI4 1-43 minimal complex (mouse) (UniProt Q9CWH4); experiment: AUC
[2] = molecular target: REC114 226-254-MEI4 1-43 minimal complex (mouse) (UniProt Q9CWH4); experiment: AUC; remark: listed apart in the source
[3] = molecular target: Strep-REC114-His-MEI4 1-127 complex (mouse) (UniProt Q9CWH4); experiment: native MS
[4] = molecular target: Strep-REC114-His-MEI4 1-127 complex (mouse) (UniProt Q9CWH4); experiment: SEC-MALS
[5] = molecular target: the molecule itself; experiment: SEC-MALS
[6] = molecular target: B6; experiment: pull-down
[7] = molecular target: T1, MEI4 1-43 (untagged) (mouse, UniProt Q8BRM6 1-43); experiment: AUC
T1 chain (looked up): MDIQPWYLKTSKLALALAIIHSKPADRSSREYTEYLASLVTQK

[8] = molecular target: B6; experiment: SEC
[9] = molecular target: the molecule itself; experiment: SEC-MALS; remark: listed apart in the source
[10] = molecular target: Strep-REC114-His-MEI4 1-127 complex (mouse) (UniProt Q9CWH4); experiment: ITC
[11] = molecular target: T2, His-Sumo-IHO1 1-281 (mouse, UniProt Q6PDM4 1-281); experiment: SEC
T2 sequence (looked up): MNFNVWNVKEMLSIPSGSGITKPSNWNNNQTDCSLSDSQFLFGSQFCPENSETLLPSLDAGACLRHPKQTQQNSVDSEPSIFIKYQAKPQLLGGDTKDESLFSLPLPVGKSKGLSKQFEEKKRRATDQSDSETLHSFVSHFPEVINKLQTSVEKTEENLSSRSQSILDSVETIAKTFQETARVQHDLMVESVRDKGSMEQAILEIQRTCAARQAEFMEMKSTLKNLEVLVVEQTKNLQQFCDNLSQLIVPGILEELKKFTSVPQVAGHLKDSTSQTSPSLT

[12] = molecular target: T3, His-MBP-IHO1 1-281 (mouse, UniProt Q6PDM4 1-281); experiment: SEC
T3 sequence (looked up): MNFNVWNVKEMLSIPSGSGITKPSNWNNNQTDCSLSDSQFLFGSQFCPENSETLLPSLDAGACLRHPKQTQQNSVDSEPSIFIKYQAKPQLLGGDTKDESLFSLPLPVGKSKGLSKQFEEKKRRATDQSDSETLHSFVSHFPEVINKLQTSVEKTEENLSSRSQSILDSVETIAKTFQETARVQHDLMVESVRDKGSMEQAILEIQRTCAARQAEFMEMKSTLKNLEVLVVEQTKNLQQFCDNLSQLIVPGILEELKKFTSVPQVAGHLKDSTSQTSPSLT

[13] = molecular target: the molecule itself; experiment: SEC-MALS; remark: listed apart in the source
[14] = molecular target: T4, His-MEI4 1-127 (mouse, UniProt Q8BRM6 1-127); experiment: SEC-MALS
T4 sequence (looked up): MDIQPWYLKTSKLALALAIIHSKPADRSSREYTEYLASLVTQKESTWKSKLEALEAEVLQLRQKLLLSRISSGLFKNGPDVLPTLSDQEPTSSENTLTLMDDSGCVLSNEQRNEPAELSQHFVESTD

[15] = molecular target: T4, His-MEI4 1-127; experiment: native MS
[16] = molecular target: T5, Strep-REC114 1-159 (PH domain) (mouse, UniProt Q9CWH4 1-159); experiment: ITC
T5 sequence (looked up): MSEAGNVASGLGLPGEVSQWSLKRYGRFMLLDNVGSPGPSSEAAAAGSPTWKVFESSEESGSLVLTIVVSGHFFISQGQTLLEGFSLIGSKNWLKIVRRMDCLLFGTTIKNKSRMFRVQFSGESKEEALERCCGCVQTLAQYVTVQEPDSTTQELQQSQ

In the case of “REC114 226-254-MEI4 1-43 minimal complex (from UniProt Q9CWH4 226-254; Q8BRM6 1-43)”, the stoichiometry N [1] is reported as 2 and the stoichiometry N [2] is reported as 2.

In the case of “Strep-REC114-His-MEI4 1-127 complex (from UniProt Q9CWH4 1-259; Q8BRM6 1-127)”, the stoichiometry N [3] is reported as 2 and the stoichiometry N [4] is reported as 2.

B1: IHO1 125-281 (domain or fragment, mouse, UniProt Q6PDM4 125-281, looked up)
chain: ATDQSDSETLHSFVSHFPEVINKLQTSVEKTEENLSSRSQSILDSVETIAKTFQETARVQHDLMVESVRDKGSMEQAILEIQRTCAARQAEFMEMKSTLKNLEVLVVEQTKNLQQFCDNLSQLIVPGILEELKKFTSVPQVAGHLKDSTSQTSPSLT
In the case of B1, the “stoichiometry N” value [5] is reported as 4.

B2: IHO1 125-261 (domain or fragment, mouse, UniProt Q6PDM4 125-261, looked up)
chain: ATDQSDSETLHSFVSHFPEVINKLQTSVEKTEENLSSRSQSILDSVETIAKTFQETARVQHDLMVESVRDKGSMEQAILEIQRTCAARQAEFMEMKSTLKNLEVLVVEQTKNLQQFCDNLSQLIVPGILEELKKFTS
B2 was tested, and the “stoichiometry N” value [5] was 4.

B3: MBP-IHO1 125-261 (MBP joined by a five-residue linker) (domain or fragment, mouse, UniProt Q6PDM4 125-261, looked up)
chain: ATDQSDSETLHSFVSHFPEVINKLQTSVEKTEENLSSRSQSILDSVETIAKTFQETARVQHDLMVESVRDKGSMEQAILEIQRTCAARQAEFMEMKSTLKNLEVLVVEQTKNLQQFCDNLSQLIVPGILEELKKFTS
With B3 the “stoichiometry N” value [5] was 4.

MDIQPWYLKTSKLALALAIIHSKPADRSSREYTEYLASLVTQK (domain or fragment, mouse, UniProt Q8BRM6 1-43, looked up) [His-MBP-MEI4 1-43]: binds [6].

In the case of GSMEQAILEIQRTCAARQAEFMEMKSTLKNLEVLVVEQTKNLQQFCDNLS (domain or fragment, mouse, UniProt Q6PDM4 196-245, looked up) [IHO1 196-245], the “stoichiometry N” value [5] is reported as 4.

ELGPFLRLCLMDQNFPAFVEEVEKELKKI (domain or fragment, mouse, UniProt Q9CWH4 226-254, looked up) [REC114 226-254 (untagged)] was tested, and the “stoichiometry N” value [7] was 2.

B4: TOPOVIBL 452-579 (domain or fragment, mouse, UniProt J3QMY9 452-579, looked up)
chain: SCDTEQHLTPEKNISAQNTKDQHKNIAQEFPEESIGQAENKRPKRGSPNHGREESRVLGSARDRSPPKSATRDRELTEVSLTARGSQTQAAHGRAQAAEAASPAGGLEDLWLQEVSNLSEWLNPGHRS
B4: binds [8].

With ELGPFLRLCLMDQNFPAFVEEVEKELKKI (domain or fragment, mouse, UniProt Q9CWH4 226-254, looked up) [His-MBP-REC114 226-254] the “stoichiometry N” value [9] was 2.

WGTEEDGPFLRLCLMDQNFPAFVEEVEKELKKITG (domain or fragment, mouse, UniProt Q9CWH4 222-256, looked up) [His-MBP-REC114 222-256 L227D]: binds [9].

B5: IHO1 1-281 (domain or fragment, mouse, UniProt Q6PDM4 1-281, looked up)
chain: MNFNVWNVKEMLSIPSGSGITKPSNWNNNQTDCSLSDSQFLFGSQFCPENSETLLPSLDAGACLRHPKQTQQNSVDSEPSIFIKYQAKPQLLGGDTKDESLFSLPLPVGKSKGLSKQFEEKKRRATDQSDSETLHSFVSHFPEVINKLQTSVEKTEENLSSRSQSILDSVETIAKTFQETARVQHDLMVESVRDKGSMEQAILEIQRTCAARQAEFMEMKSTLKNLEVLVVEQTKNLQQFCDNLSQLIVPGILEELKKFTSVPQVAGHLKDSTSQTSPSLT
For B5, the Kd [10] was 26.9 µM and the “stoichiometry N” value [5] was 4.

B6: binds [11]; binds [12]; binds [13]. The “stoichiometry N” value [14] was 2 and the “stoichiometry N” value [15] was 1.

Molecule MNFNVWNVKEMLSIPSGSGITKP (domain or fragment, mouse, UniProt Q6PDM4 1-23, looked up) [His-MBP-IHO1 1-23] has a Kd [10] of 31.9 µM and a Kd [16] of 30.4 µM.
